Experimental findings from the supplement of paper PMC7877785 are described below.

The data set in a line: self-splicing fitness, log relative to wild type (ln ratio); higher = more splicing; Tetrahymena group I intron in knt gene, E. coli kanamycin selection, DiMSum; sequences stand for … in CUCUCU…GGAGGGAAAAGUUAUCAGGCAUGCACCUGGUAGCUAGUCUUUAAACCAAUAGAUUGCAUCGGUUUAAAAGGCAAGACCGUCAAAUUGCGGGAAAGGGGUCAACAGCCGUUCAGUACCAAGUCUCAGGGGAAACUUUGAGAUGGCCUUGCAAAGGGUAUGGUAAUAAGCUGACGGACAUGGUCCUAACCACGCAGCCAAGUCCUAAGUCAACAGAUCUUCUGUUGAUAUGGAUGCAGUUCACAGACUAAAUGUCGGUCGGGGAAGAUGUAUUCUUCUCAUAAGAUAUAGUCGGACCUCUCCUUAAUGGGAGCUAGCGGAUGAAGUGAUGCAACACUGGAGCCGCUGGGAACUAAUUUGUAUGCGAAAGUAUAUUGAUUAGUUUUGGAGUACUCGUGGUCG
An outline of the steps:
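A randomised library covering all eight P1ex-region intron nucleotides was built with the intron in the knt kanamycin-resistance gene on pET-22b(+) and held in E. coli BL21(DE3). Cells were grown overnight at 37°C or 30°C on LB agar, with or without 25 μg/mL kanamycin, plus 100 μg/mL carbenicillin, 50 μM IPTG and 0.2% rhamnose, and pooled colonies were amplicon-sequenced on an Illumina HiSeq 2500. DiMSum fitness is the error-weighted combination of wild-type-normalised replicate fold changes, kanamycin versus none.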

± gives the uncertainty stated by the source.

On to AUGUAGCAAUAUUACGGUGG, for which the “self-splicing fitness (ln)” value by setting is: (30 °C) -3.1 ± 0.27; (37 °C) -2.77 ± 0.24.
The matching figures for AUGUAGCAAUAUUACGUAGU: -2.89 ± 0.18 and -1.42 ± 0.15.
Take AUGUAGCAAUAUUACGUCAC: the “self-splicing fitness (ln)” value (37 °C) was -2.81 ± 0.47.
Take AUGUAGCAAUAUUACGUCAG: the “self-splicing fitness (ln)” value is -3.5 ± 0.18 (30 °C) and -2.25 ± 0.16 (37 °C).
For the sequence AUGUAGCAAUAUUACGUGCA, the “self-splicing fitness (ln)” value was -0.921 ± 0.13 (30 °C) and -1.01 ± 0.12 (37 °C).
The matching figures for AUGUAGCAAUAUUACGUUGC: -3.43 ± 0.27 and -3.08 ± 0.32.
The matching figures for AUGUAGCAAUAUUACGUUUG: -3.35 ± 0.23 and -2.72 ± 0.25.
The matching figures for AUUAAGCAAUAUUACGAACU: -0.318 ± 0.12 and 0.315 ± 0.16.
Take AUUAAGCAAUAUUACGACUU: the “self-splicing fitness (ln)” value reads like this: (30 °C) 0.276 ± 0.082; (37 °C) -0.0124 ± 0.11.
With AUUAAGCAAUAUUACGAUCG, the “self-splicing fitness (ln)” value is, setting by setting: (30 °C) -2.33 ± 0.12; (37 °C) -0.671 ± 0.12.
The matching figures for AUUAAGCAAUAUUACGAUGA: -0.766 ± 0.11 and -0.613 ± 0.12.
The matching figures for AUUAAGCAAUAUUACGCACA: -0.525 ± 0.12 and -0.202 ± 0.13.
AUUAAGCAAUAUUACGCACG: the “self-splicing fitness (ln)” value reads like this: (30 °C) -1.37 ± 0.16; (37 °C) -0.648 ± 0.17.
Consider AUUAAGCAAUAUUACGCAUA, for which the “self-splicing fitness (ln)” value runs as follows: (30 °C) -1.98 ± 0.24; (37 °C) -1.32 ± 0.22.
Consider AUUAAGCAAUAUUACGCCAC, for which the “self-splicing fitness (ln)” value (37 °C) is -1.53 ± 0.39.
As to AUUAAGCAAUAUUACGCCCU, the “self-splicing fitness (ln)” value reads like this: (30 °C) -0.0606 ± 0.33; (37 °C) -0.149 ± 0.28.
AUUAAGCAAUAUUACGCCGC: for the setting “37 °C”, the “self-splicing fitness (ln)” value was -2.04 ± 0.47.
Regarding AUUAAGCAAUAUUACGCCUU, the “self-splicing fitness (ln)” value (30 °C) was -0.293 ± 0.16 and the “self-splicing fitness (ln)” value (37 °C) worked out at 0.373 ± 0.19.
With AUUAAGCAAUAUUACGCGAG, the “self-splicing fitness (ln)” value by setting is: (30 °C) -1.27 ± 0.1; (37 °C) -0.38 ± 0.097.
Consider AUUAAGCAAUAUUACGCGAU, for which the “self-splicing fitness (ln)” value reads like this: (30 °C) -3.33 ± 0.23; (37 °C) -2.63 ± 0.34.
On to AUUAAGCAAUAUUACGCUAG, for which the “self-splicing fitness (ln)” value (30 °C) was -1.96 ± 0.16 and the “self-splicing fitness (ln)” value (37 °C) was -0.736 ± 0.18.
The matching figures for AUUAAGCAAUAUUACGGGAG: -3.06 ± 0.23 and -1.89 ± 0.18.
The matching figures for AUUAAGCAAUAUUACGGUGA: -1.3 ± 0.13 and -0.588 ± 0.14.
The matching figures for AUUAAGCAAUAUUACGGUUC: -3.04 ± 0.35 and -0.609 ± 0.31.
In the case of AUUAAGCAAUAUUACGUAAA, the “self-splicing fitness (ln)” value is, setting by setting: (30 °C) -1.29 ± 0.12; (37 °C) -1.15 ± 0.14.
AUUAAGCAAUAUUACGUAGU: the “self-splicing fitness (ln)” value by setting is: (30 °C) -1.53 ± 0.071; (37 °C) -0.166 ± 0.085.
The matching figures for AUUAAGCAAUAUUACGUCAG: -3.01 ± 0.24 and -1.85 ± 0.21.
The matching figures for AUUAAGCAAUAUUACGUGAG: -0.882 ± 0.049 and -0.33 ± 0.081.
The matching figures for AUUAAGCAAUAUUACGUGCU: -1.58 ± 0.15 and -0.835 ± 0.14.
As for AUUCAGCAAUAUUACGACAG, the “self-splicing fitness (ln)” value (30 °C) is -2.39 ± 0.16 and the “self-splicing fitness (ln)” value (37 °C) is -0.849 ± 0.17.
The matching figures for AUUCAGCAAUAUUACGACGA: -0.537 ± 0.1 and -0.53 ± 0.12.
Consider AUUCAGCAAUAUUACGACGC, for which the “self-splicing fitness (ln)” value was -0.246 ± 0.11 (30 °C) and 0.397 ± 0.14 (37 °C).
The matching figures for AUUCAGCAAUAUUACGACUU: -0.122 ± 0.1 and 0.27 ± 0.11.
On to AUUCAGCAAUAUUACGAGAG, for which the “self-splicing fitness (ln)” value by setting is: (30 °C) -2.65 ± 0.11; (37 °C) -1.38 ± 0.1.
For AUUCAGCAAUAUUACGAGUG, the “self-splicing fitness (ln)” value runs as follows: (30 °C) -1.37 ± 0.062; (37 °C) -1.02 ± 0.082.
As to AUUCAGCAAUAUUACGAUCC, the “self-splicing fitness (ln)” value was -0.321 ± 0.19 (30 °C) and -0.287 ± 0.25 (37 °C).
The matching figures for AUUCAGCAAUAUUACGAUUA: -0.138 ± 0.097 and 0.146 ± 0.089.
Regarding AUUCAGCAAUAUUACGAUUC, the “self-splicing fitness (ln)” value is -1.62 ± 0.059 (30 °C) and -0.407 ± 0.077 (37 °C).
